# B1: UDP-glucuronic acid 4-epimerase (BcUGAepi) (Bacillus cereus HuA2-4) (protein)
# chain: MKILVTGAAGFIGSHLCQALLKNSAYHVVGIDHFIGPTPATLKTGNIQSLELNSRFQFIREDILNTDLSKLLQDIDVVYHLAAIPGVRTSWGKDFQPYVTNNIMVTQQLLEACKHIKLDKFIHISTSSVYGEKSGAVSEDLLPIPLSPYGVTKLSGEHLCHVYHKNFHIPIVILRYFTVYGPRQRPDMAFHRLIKQMLEDKPLTIFGDGTQTRDFTYIDDCIRGTVAALETKKNIIGEVINIGGKEQASILDIISMLEKISGKSATKNFLKSVPGEPKQTWADISKASTLLQYSPTVSLSDGLEAEYDYIKQLYKGDAAWSHPQFEK
# Tests used:
# [1] = target: T1, BcUGAepi (UDP-glucuronic acid 4-epimerase) (Bacillus cereus group, UniProt Z9OZ01HDE8); assay: HPLC of cofactor released from denatured enzyme; assay type: binding
# T1 construct: C-terminal Strep-tag kept; synthetic gene in pET17b; expressed in E. coli Lemo21(DE3); monomer 37003 g/mol
# [2] = test system: BcUGAepi (UDP-glucuronic acid 4-epimerase); conditions: tightly bound cofactor of the isolated enzyme
# [3] = test system: BcUGAepi (UDP-glucuronic acid 4-epimerase); conditions: 1 mM UDP-GlcA; 135 µM enzyme; 100 µM NAD+; pH 7.6; 23 °C
# [4] = test system: O=C(O)[C@H]1O[C@H](OP(=O)(O)OP(=O)(O)OC[C@H]2O[C@@H](n3ccc(=O)[nH]c3=O)[C@H](O)[C@@H]2O)[C@H](O)[C@@H](O)[C@@H]1O; assay: purified protein; conditions: forward epimerization, 50 µM NAD+, 50 mM sodium phosphate, 100 mM NaCl, pH 7.6, room temperature (23 °C)
# [5] = test system: O=C(O)[C@H]1O[C@H](OP(=O)(O)OP(=O)(O)OC[C@H]2O[C@@H](n3ccc(=O)[nH]c3=O)[C@H](O)[C@@H]2O)[C@H](O)[C@@H](O)[C@H]1O; assay: purified protein; conditions: reverse epimerization, 50 µM NAD+, 50 mM sodium phosphate, 100 mM NaCl, pH 7.6, room temperature (23 °C)
# Tyr149 = Tyr149 (UniProt position 149, TPQSPYGKSKL); assay: kinetics; conditions: cited from earlier work
# [6] = target: UDP-glucuronic acid 4-epimerase from Bacillus cereus HuA2-4 (Bacillus cereus HuA2-4); assay: SEC; gel filtration of the isolated protein (HiLoad 16/60 Superdex 200, calibrated with a gel filtration standard mixture); details in the Supporting information
# Tyr149 (position 149, …) = assay: kinetics; conditions: 23 °C, 50 mM Na2HPO4, 100 mM NaCl, pH adjusted with NaOH or HCl, Enzyme-NAD+ with saturating UDP-GlcA (1 mM) and 100 µM added NAD+. The kcat profile reports on the enzyme/NAD+/UDP-GlcA complex.
molecule,measurement,setting,value
NC(=O)C1=CN([C@@H]2O[C@H](COP(=O)(O)OP(=O)(O)OC[C@H]3O[C@@H](n4cnc5c(N)ncnc54)[C@H](O)[C@@H]3O)[C@@H](O)[C@H]2O)C=CC1 [NADH],HPLC of cofactor released from denatured enzyme,[1]; minor co-purified reduced form of the bound cofactor,"NADH was also present, the content varying slightly"
NC(=O)c1ccc[n+]([C@@H]2O[C@H](COP(=O)(O)OP(=O)(O)OC[C@H]3O[C@@H](n4cnc5c(N)ncnc54)[C@H](O)[C@@H]3O)[C@@H](O)[C@H]2O)c1 [NAD^+],co-purified cofactor,[2],The purified Y149F variant (Fig. S19) contained protein‐bound NAD^+ as the wild‐type enzyme
same,HPLC of cofactor released from denatured enzyme,"[1]; co-purified, tightly bound, one per subunit","we identified the cofactor as NAD, not NADP"
O=C(O)[C@H]1O[C@H](OP(=O)(O)OP(=O)(O)OC[C@H]2O[C@@H](n3ccc(=O)[nH]c3=O)[C@H](O)[C@@H]2O)[C@H](O)[C@@H](O)[C@@H]1O [UDP-GlcA],HPLC time course of conversion,[3],the Y149F variant converted UDP‐GlcA into UDP‐GalA without trace formation of side products
BcUGAepi (UDP-glucuronic acid 4-epimerase) (Bacillus cereus group),Km,[4],360 ± 20 µM
same,kcat,[4],0.25 ± 0.01 s⁻¹
same,Km,[5],890 ± 130 µM
same,kcat,[5],0.32 ± 0.02 s⁻¹
UDP-galactose 4-epimerase (GALE) (Escherichia coli),pKa,Tyr149,6.9
UDP-glucuronic acid 4-epimerase from Bacillus cereus HuA2-4 (enzyme),stoichiometry N,[6],2
B1,pKa,"Tyr149 (position 149, …)",5.90 (±0.05)
